The labels stand for the following.
B1: C246V, Q8NJY3 (parent)
chain: MLKSALLLGAAAVSVQSASIPTIPANLEPRQIRSLCELYGYWSGNGYELLNNLWGKDTATSGWQCTYLDGTNNGGIQWSTAWEWQGAPDNVKSYPYVGKQIQRGRKISDINSMRTSVSWTYDRTDIRANVAYDVFTARDPDHPNWGGDYELMIWLARYGGIYPIGTFHSQVNLAGRTWDLWTGYNGNMRVYSFLPPSGDIRDFSCDIKDFFNYLERNHGYPAREQNLIVYQVGTECFTGGPARFTCRDFRADLW
B2: G186C, O00095 (parent)
chain: MKFLQVLPALIPAALAQTSCDQWATFTGNGYTVSNNLWGASAGSGFGCVTAVSLSGGASWHADWQWSGGQNNVKSYQNSQIAIPQKRTVNSISSMPTTASWSYSGSNIRANVAYDLFTAANPNHVTYSGDYELMIWLGKYGDIGPIGSSQGTVNVGGQSWTLYYGYNGAMQVYSFVAQTNTTNYSGDVKNFFNYLRDNKGYNAAGQYVLSYQFGTEPFTGSGTLNVASWTASIN

Data set [1] covers variants of B1. The conditions noted are these: Trichocladium griseum; pH 8; Thermal; CD; Bis-Tris propane ammonium acetate 0.05 M 0.05 M; reversible: No; structure 1OLR; whole UniProt chain shown.
The variants in data set [2] derive from B2. The conditions noted are these: Hypocrea jecorina; pH 8; Thermal; CD; Bis-Tris propane ammonium acetate 0.05 M 0.05 M; reversible: No; structure 1H8V; whole UniProt chain shown.

By Tm is commonly meant the temperature at the midpoint of the melting transition.

Consider MLKSALLLGAAAVSVQSASIPTIPANLEPRQIRSLCELYGYWSGNGYELLNNLWGKDTATSGWQCTYLDGTNNGGIQWSTAWEWQGAPDNVKSYPYVGKQIQRGRKISDINSMRTSVSWTYDRTDIRANVAYDVFTARDPDHPNWGGDYELMIWLARYGGIYPIGTFHSQVNLAGRTWDLWTGYNGNMRVYSFLPPSGDIRDFSCDIKDFFNYLERNHGYPAREQNLIVYQVGTECFTGGPARFTVRDFRADLW [C246V], for which, in data set [1], the melting temperature (Tm) worked out at 69.5 °C and the “change of melting temperature, mutant - wild type (higher = more stable)” value (“change of melting temperature, mutant” for short) was determined as 0.8 °C.
On the same counts, the results for MLKSALLLGAAAVSVQSASIPTIPANLEPRQIRSLCELYGYWSGNGYELLNNLWGKDTATSGWQCTYLDGTNNGGIQWSTAWEWQGAPDNVKSYPYVGKQIQRGRKISDINSMRTSVSWTYDRTDIRANVAYDVFTARDPDHPNWGGDYELMIWLARYGGIYPIGTFHSQVNLAGRTWDLWTGYNGNMRVYSFLPPSGDIRDFSCDIKDFFNYLERNHGYPAREQNLIVYQVGTECFTGGPARFTSRDFRADLW [C246S] are 63.1 °C and -5.6 °C.
The matching figures for MLKSALLLGAAAVSVQSASIPTIPANLEPRQIRSLCELYGYWSGNGYELLNNLWGKDTATSGWQCTYLDGTNNGGIQWSTAWEWQGAPDNVKSYPYVGKQIQRGRKISDINSMRTSVSWTYDRTDIRANVAYDVFTARDPDHPNWGGDYELMIWLARYGGIYPIGTFHSQVNLAGRTWDLWTGYNGNMRVYSFLPPSGDIRDFSGDIKDFFNYLERNHGYPAREQNLIVYQVGTECFTGGPARFTCRDFRADLW [C205G]: 69.9 °C and 1.2 °C.
On the same counts, the results for MLKSALLLGAAAVSVQSASIPTIPANLEPRQIRSLCELYGYWSGNGYELLNNLWGKDTATSGWQCTYLDGTNNGGIQWSTAWEWQGAPDNVKSYPYVGKQIQRGRKISDINSMRTSVSWTYDRTDIRANVAYDVFTARDPDHPNWGGDYELMIWLARYGGIYPIGTFHSQVNLAGRTWDLWTGYNGNMRVYSFLPPSGDIRDFSSDIKDFFNYLERNHGYPAREQNLIVYQVGTECFTGGPARFTCRDFRADLW [C205S] are 68.9 °C and 0.2 °C.
In the case of MLKSALLLGAAAVSVQSASIPTIPANLEPRQIRSLCELYGYWSGNGYELLNNLWGKDTATSGWQCTYLDGTNNGGIQWSTAWEWQGAPDNVKSYPYVGKQIQRGRKISDINSMRTSVSWTYDRTDIRANVAYDVFTARDPDHPNWGGDYELMIWLARYGGIYPIGTFHSQVNLAGRTWDLWTGYNGNMRVYSFLPPSGDIRDFSCDIKDFFNYLERNHGYPAREQNLIVYQVGTESFTGGPARFTCRDFRADLW [C236S], in data set [1], the melting temperature (Tm) is 63.3 °C and the “change of melting temperature, mutant” value was -5.4 °C.
The matching figures for MLKSALLLGAAAVSVQSASIPTIPANLEPRQIRSLCELYGYWSGNGYELLNNLWGKDTATSGWQCTYLDGTNNGGIQWSTAWEWQGAPDNVKSYPYVGKQIQRGRKISDINSMRTSVSWTYDRTDIRANVAYDVFTARDPDHPNWGGDYELMIWLARYGGIYPIGTFHSQVNLAGRTWDLWTGYNGNMRVYSFLPPSGDIRDFSCDIKDFFNYLERNHGYPAREQNLIVYQVGTEPFTGGPARFTCRDFRADLW [C236P]: 59.5 °C and -9.2 °C.
For the variant MKFLQVLPALIPAALAQTSCDQWATFTGNGYTVSNNLWGASAGSGFGCVTAVSLSGGASWHADWQWSGGQNNVKSYQNSQIAIPQKRTVNSISSMPTTASWSYSGSNIRANVAYDLFTAANPNHVTYSGDYELMIWLGKYGDIGPIGSSQGTVNVGGQSWTLYYGYNGAMQVYSFVAQTNTTNYSCDVKNFFNYLRDNKGYNAAGQYVLSYQFGTEPFTGSGTLNVASWTASIN [G186C], in data set [2], the Tm is 56.5 °C and the “change of melting temperature, mutant” value was determined as 2.1 °C.
On the same counts, the results for MKFLQVLPALIPAALAQTSCDQWATFTGNGYTVSNNLWGASAGSGFGCVTAVSLSGGASWHADWQWSGGQNNVKSYQNSQIAIPQKRTVNSISSMPTTASWSYSGSNIRANVAYDLFTAANPNHVTYSGDYELMIWLGKYGDIGPIGSSQGTVNVGGQSWTLYYGYNGAMQVYSFVAQTNTTNYSGDVKNFFNYLRDNKGYNAAGQYVLSYQFGTEPFTGSGTLNCASWTASIN [V226C] are 54.5 °C and 0.1 °C.
On the same counts, the results for MKFLQVLPALIPAALAQTSCDQWATFTGNGYTVSNNLWGASAGSGFGCVTAVSLSGGASWHADWQWSGGQNNVKSYQNSQIAIPQKRTVNSISSMPTTASWSYSGSNIRANVAYDLFTAANPNHVTYSGDYELMIWLGKYGDIGPIGSSQGTVNVGGQSWTLYYGYNGAMQVYSFVAQTNTTNYSCDVKNFFNYLRDNKGYNAAGQYVLSYQFGTECFTGSGTLNCASWTASIN [P217C V226C G186C] are 54.5 °C and 0.1 °C.
The matching figures for MKFLQVLPALIPAALAQTSCDQWATFTGNGYTVSNNLWGASAGSGFGCVTAVSLSGGASWHADWQWSGGQNNVKSYQNSQIAIPQKRTVNSISSMPTTASWSYSGSNIRANVAYDLFTAANPNHVTYSGDYELMIWLGKYGDIGPIGSSQGTVNVGGQSWTLYYGYNGAMQVYSFVAQTNTTNYSGDVKNFFNYLRDNKGYNAAGQYVLSYQFGTECFTGSGTLNCASWTASIN [P217C V226C]: 55.1 °C and 0.7 °C.
On to MKFLQVLPALIPAALAQTSCDQWATFTGNGYTVSNNLWGASAGSGFGCVTAVSLSGGASWHADWQWSGGQNNVKSYQNSQIAIPQKRTVNSISSMPTTASWSYSGSNIRANVAYDLFTAANPNHVTYSGDYELMIWLGKYGDIGPIGSSQGTVNVGGQSWTLYYGYNGAMQVYSFVAQTNTTNYSGDVKNFFNYLRDNKGYNAAGQYVLSYQFGTECFTGSGTLNVASWTASIN [P217C], for which, in data set [2], the Tm was 58.3 °C and the “change of melting temperature, mutant” value came out at 3.9 °C.
The matching figures for MKFLQVLPALIPAALAQTSCDQWATFTGNGYTVSNNLWGASAGSGFGCVTAVSLSGGASWHADWQWSGGQNNVKSYQNSQIAIPQKRTVNSISSMPTTASWSYSGSNIRANVAYDLFTAANPNHVTYSGDYELMIWLGKYGDIGPIGSSQGTVNVGGQSWTLYYGYNGAMQVYSFVAQTNTTNYSCDVKNFFNYLRDNKGYNAAGQYVLSYQFGTECFTGSGTLNVASWTASIN [G186C P217C]: 55.1 °C and 0.7 °C.

The values are drawn from FireProtDB (doi:10.1110/ps.03220403).
